Measured values: US20120245221A1, “ANTI-APOPTOTIC AGENTS AND USES THEREOF” (priority 2009, published 2012)

How the values were obtained:
[1] = system: Akt; assay: Akt-dependent phosphorylation of PDNF in Schwann cells (immunoprecipitation with TCN-2, Western blotting); format: cell-based, human
Method: To provide further evidence that the phosphorylation of PDNF depended on host […], T. cruzi-infected Schwann cells were treated with LY294002, a pharmacological inhibitor of PI3K, which phosphorylates and activates Akt (10), and with Akti VIII, a specific allosteric inhibitor of Akt that prevents the phosphorylation of Akt at Ser^473 and Thr^308, which is critical for the activation of Akt (25). Lysates of treated cells were assayed for phosphorylated Akt (pAkt) and, after immunoprecipitation with a PDNF-specific antibody, for the presence of Akt-phosphorylated substrates. […] The conclusion that PDNF was a substrate of Akt was further reinforced by in vitro kinase assays.
(§1) Cell monolayers were lysed with lysis buffer (20 mM tris-HCl (pH 7.5), 150 mM NaCl, 1 mM EDTA, 1% Triton X-100, 2.5 mM sodium pyrophosphate, 1 mM glycerophosphate, 1 mM Na3VO4, 1 μg/mL leupeptin and 1 mM phenylmethylsulfonyl fluoride (PMSF)) on ice for 10 min, cleared by centrifugation (12,000×g for 10 min at 4° C.) and immunoprecipitated with an antibody specific for Akt-phosphorylated substrate or with TCN-2 at 4° C. overnight Immunoprecipitates were collected with protein G-Sepharose for 2 hours at 4° C., washed with lysis buffer, and resuspended in SDS-sample buffer for SDS-PAGE and Western blotting analysis. In other experiments, total cell lysates (30 to 50 μg of protein) were resolved by SDS-PAGE, transferred to nitrocellulose membranes, and incubated with the relevant primary antibodies, followed by incubation with HRP-conjugated secondary antibody and visualization by ECL.

[2] = system: Schwann cells; assay: TNF-α and TGF-β induced apoptosis, TUNEL assay; format: cell-based, human; conditions: TNF-α 20 ng/ml and TGF-β 40 ng/ml
Method: (§2) Infected Schwann cells, Sc-Red cells, and Sc-PDNF cells were treated for 24 hours with 100 to 500 μM H2O2 with or without pretreatment with the Akt inhibitor Akti VIII (10 μM), fixed, and visualized by fluorescence microscopy after staining with DAPI and TUNEL reagents with the In Situ Cell Death Detection kit (Roche). Cell survival was measured by MTT-based CellTiter kit (Promega). Alternatively, Sc-Red and Sc-PDNF cells were grown for 4 days in DMEM, 1% bovine serum albumin (BSA) with or without TNF-α (20 ng/ml) and TGF-β1 (40 ng/ml) and with or without Akti VIII (10 μM).

[3] = system: Schwann cells; format: cell-based, human; conditions: 100 μM H2O2, 24 hours
Method: (§3) Immortalized human Schwann cells (54) were maintained in DMEM supplemented with 10% FCS and penicillin/streptomycin at 37° C. in 5% CO2. Infections were performed with T. cruzi trypomastigotes (Silvio strain) at 2×10^5 parasites/ml or at a parasite:cell ratio of 50:1. After 2 or 3 hours, monolayers were washed to remove unattached parasites and cells were then maintained in medium containing 2% FCS for 3 to 5 days to complete the intracellular infection cycle.
as §2

[4] = system: Schwann cells; assay: H2O2-induced apoptosis, TUNEL assay; format: cell-based, human
Method: as §2

[5] = system: bacterially-expressed PDNF (recombinant full-length PDNF, clone 19Y, expressed in E. coli)
[6] = molecular target: Akt kinase, endogenous protein of immortalized human Schwann cells (human) (UniProt P31749); assay: cell-based or functional assay
[7] = system: Akt; assay: Western blotting of pAkt (activation of Akt) in Schwann cells; format: cell-based, human; conditions: Schwann cell-expressed PDNF compared to control transfected cells
Method: as §3
The coding region of the gene encoding PDNF (formerly T. cruzi neuraminidase, or TCNA) was amplified from the TS19y clone (20) with the primers TCNA-F: 5′-[…]-3′ (SEQ ID NO: 11) and TCNA-R: 5′-[…] (SEQ ID NO: 12) (restriction sites for XhoI and SacII are underlined) and inserted into the pIRES2-DsRed-Express vector (Clontech). Selected recombinant plasmids were purified with the Qiagen kit, sequenced at Tufts University Core facility, and used for transfections. Cells were plated at 1×10^5 cells/ml in 100-mm plates 20 hours before their transfection with 10 μg of total DNA per plate with the FuGENE HD transfection reagent (Roche Diagnostics) as recommended by the manufacturer. Transfected cells were selected with G418 (1 mg/ml) and analyzed for the presence of PDNF by Western blotting and trans-sialidase activity assays (26). […]

[8] = system: Akt2; assay: Real-time PCR, Sc-PDNF vs Sc-Red cells: Akt2; format: cell-based, human; conditions: PDNF-expressing cells vs control cells, p<0.05
Method: (§4) These assays were performed as described previously (57, 58). In brief, RNA was isolated with the Trizol reagent and chloroform, cDNA was synthesized from 500 ng of total RNA with Superscript III reverse transcriptase primed with random hexamers, and quantitative PCR reactions were performed with QuantiTect SYBR Green PCR kit (Qiagen) on an Applied Biosystems 7300 Real-Time PCR system. Conditions for the PCR reactions were: 95° C. for 15 min, followed by 50 cycles at 94° C. for 15 s, 54° C. for 30 s, and 72° C. for 45 s, concluding with a dissociation stage to measure amplification product specificity. Primers used to calculate Akt expression were synthesized as described previously (57). Experiments were performed in triplicate, and fold differences were calculated by the 2^−ΔΔCt method (ΔΔCt=(Cttarget gene−Ctb-actin)treated−(Cttarget gene−Ctb-actin)untreated) as described previously (58).

[9] = system: transcription factor FOXO; assay: cDNA microarray, Sc-PDNF vs Sc-Red cells: FOXO mRNA; format: cell-based, human; conditions: PDNF-expressing Schwann cells vs control cells
Method: (§5) These analyses were performed as described previously (55, 56). The concentration and quality of total RNA isolated from Sc-Red cells and Sc-PDNF cells were estimated by spectrophotometry (A260 nm/A280 nm of 1.9 to 2.1) and by agarose gel electrophoresis. Hybridization and data analysis were performed by the Tufts Expression Array Core with cDNAs prepared from Sc-Red cells and Sc-PDNF cells labeled with aminoallyl (aa)-dUTP Cy3 or Cy5 dyes, respectively. The two differently dye-labeled cDNAs were hybridized with the same microarray slide containing 48,500 human genes (Microarrays Inc) for 16 hours. After washing, the slide was scanned at 550 nm and 649 nm for Cy-3 and Cy-5 dyes, respectively, in a ScanArray 4000 scanner (PerkinElmer). Images were overlaid and analyzed with QuantArray spot quantification software (Packard BioChip Technologies). The ratio of both fluorescence intensities for each spot reflected the ratio of each gene expressed in the control and treatment samples. […] For each gene, ratios of red (Cy-5) over green (Cy-3) intensities (I) were calculated and normalized through a Lowess Fit of the log2 ratios (log2(Icy-5/Icy-3)) over the log2 of the total intensity (log2(Icy-5. Icy-3)). Mean ratios were calculated from the duplicate spots, and only values with a covariance (CV) b0.5 were further taken into account. […]

[10] = system: caspase-9; assay: cDNA microarray, Sc-PDNF vs Sc-Red cells: caspase-9 mRNA; format: cell-based, human; conditions: PDNF-expressing Schwann cells vs control cells
Method: as §5

[11] = system: mitochondrial protein BAX; assay: cDNA microarray, Sc-PDNF vs Sc-Red cells: BAX mRNA; format: cell-based, human; conditions: PDNF-expressing Schwann cells vs control cells
Method: as §5

[12] = system: other protein kinases; assay: cDNA microarray, Sc-PDNF vs Sc-Red cells: other protein kinase mRNAs; format: cell-based, human; conditions: Schwann cells expressing PDNF vs control cells
Method: as §5

[13] = system: Akt3; assay: cDNA microarray, Sc-PDNF vs Sc-Red cells: Akt3 mRNA; format: cell-based, human; conditions: Schwann cells expressing PDNF vs control cells
Method: as §5

[14] = system: Akt; assay: Coimmunoprecipitation of PDNF and Akt; format: binding; conditions: lysates of T. cruzi-infected human Schwann cells, 4 days; IP with mAb TCN-2
Method: We infected Schwann cells with T. cruzi for 2 hours, removed parasites from the medium overlay by washing, and cultured the cells for 4 days to allow intracellular parasites to differentiate, grow, and multiply. Lysates of uninfected and infected Schwann cells were immunoprecipitated with the monoclonal antibody (mAb) TCN-2, which is specific for the C-terminal tandem repeat unit of PDNF (FIG. 1A) (23), and Western blots of these immunoprecipitates were incubated with PDNF— and Akt-specific antibodies.
as §1

[15] = system: Akt3; assay: Real-time PCR, Sc-PDNF vs Sc-Red cells: Akt3; format: cell-based, human; conditions: PDNF-transfected Schwann cells vs control cells
Method: as §4

[16] = T. cruzi-infected Schwann cells treated with inhibitor for 24 hours

Molecule: O=c1[nH]c2ccccc2n1C1CCN(Cc2ccc(-c3nc4cc5[nH]cnc5cc4nc3-c3ccccc3)cc2)CC1 [Akti VIII]
- extent of the phosphorylation of PDNF ([1]; Schwann cells transfected with plasmid encoding PDNF, inhibitor for 24 hours): substantially decreased
- abundance of activated Akt (pAkt) [1, 16]: reduction in abundance of activated Akt
- abundance of unphosphorylated PDNF [1, 16]: did not affect
- phosphorylation of PDNF [1, 16]: inhibition of the phosphorylation of PDNF
- effect of Akt inhibitor on anti-apoptotic effect of intracellular PDNF ([2]; Akti VIII 10 μM): abolished
- effect of Akt inhibitor on survival-promoting activity of PDNF ([3]; Sc-PDNF cells pretreated with Akti VIII 10 μM): abrogated
- effect of Akt inhibitor on resistance of infected cells to oxidative stress ([3]; T. cruzi-infected Schwann cells pretreated with Akti VIII 10 μM): lost

Molecule: OO [H2O2, hydrogen peroxide]
- cell survival of uninfected Schwann cells [3]: only half of the cells survived
- apoptosis induced in uninfected Schwann cells ([4]; 100 μM H2O2, 6 hours): ~25%
- uninfected cells with apoptosis-related DNA damage ([4]; 500 μM H2O2, 24 hours): ~90%

Molecule: Akt kinase, endogenous protein of immortalized human Schwann cells
- in vitro kinase assay: phosphorylation of bPDNF by immuno-purified Akt, Western blot with antibody against Akt-phosphorylated substrates [5]: generated phosphorylated PDNF in vitro in a dose-dependent and ATP-dependent manner

Molecule: PDNF expressed in the cytosol of human Schwann cells transfected with pIRES2-DsRed-Express carrying
- apoptosis (TUNEL assay) of Sc-PDNF cells in TNF-α (20 ng/ml) and TGF-β (40 ng/ml) [6]: 2.5 % of cells

Molecule: PDNF expressed in the cytosol of human Schwann cells transfected with pIRES2-DsRed-Express carrying (enzyme)
- abundance of pAkt (Ser^473), Western blot with scanning densitometry, Sc-PDNF against control transfected cells [6]: 5 fold
- abundance of pAkt (Thr^308), Western blot with scanning densitometry, Sc-PDNF against control transfected cells [6]: 6 fold

B1: PDNF: Trypanosoma cruzi membrane-bound neuraminidase/trans-sialidase; clone 19Y expressed in Schwann cell cytosol from pIRES2-DsRed-Express plasmid (protein, listed as Trypanosoma cruzi)
chain: MGKTVVVASRMFWLMFFVPLLLAICPSEPAYALAPGSSRVELFKRKNSTVPFEDKAGKVTERVVHSFRLPALVNVDGVMVAIADARYDTSNDNSLIDTVAKYSVDDGETWETQIAIKNSRVSSVSRVVDPTVIVKGNKLYVLVGSYYSSRSYWSSHGDARDWDILLAVGEVTKSTAGGKITASIKWGSPVSLKKFFPAEMEGMHTNQFLGGAGVAIVASNGNLVYPVQVTNKKKQVFSKIFYSEDDGKTWKFGKGRSDFGCSEPVALEWEGKLIINTRVDWKRRLVYESSDMEKPWVEAVGTVSRVWGPSPKSNQPGSQSSFTAVTIEGMRVMLFTHPLNFKGRWLRDRLNLWLTDNQRIYNVGQVSIGDENSAYSSVLYKDDKLYCLHEINTDEVYSLVFARLVGELRIIKSVLRSWKNWDSHLSSICTPADPAASSSESGCGPAVTTVGLVGFLSGNASQNVWEDAYRCVNASTANAERVRNGLKFAGVGGGALWPVSQQGQNQRYRFANHAFTLVASVTIHEAPRAASPLLGASLDSSGGKKLLGLSYDEKHQWQPIYGSTPVTPTGSWETGKRYHLVLTMANKIGSVYIDGELLEGSGQTVVPDGRTPDISHFYVGGYKRSDMPTISHVTVNNVLLYNRQLNTEEIRTLFLSQDLIGTEAHM
- increase in the abundance of pAkt (Ser473) [7]: five-fold
- increase in the abundance of pAkt (Thr308) [7]: six-fold
- increase in the mRNA for Akt2 [8]: ~5.0 fold
- FOXO mRNA reduced in abundance [9]: ~4.0 fold
- cells that underwent apoptosis (TUNEL-positive) ([2]; PDNF in Schwann cell cytosol, 4 days): 2.5%±0.7
- caspase-9 mRNA reduced in abundance [10]: ~5.0 fold
- protection from H2O2-induced oxidative stress ([3]; Schwann cells transfected with plasmid encoding PDNF): protected from H2O2-induced oxidative stress
- BAX mRNA reduced in abundance [11]: ~2.6 fold
- abundance of the mRNAs for other protein kinases [12]: unaltered
- Akt3 mRNA more abundant [13]: ~3 fold
- physical interaction between PDNF and Akt [14]: coimmunoprecipitated PDNF and Akt
- increased expression of the gene encoding Akt3 [15]: 3 fold
